Measurements: patent US20250236679A1 (Chugai, published 2025)

T1: human DLL3-Fc (human)
T1 construct: also called soluble DLL3 protein
T1 chain: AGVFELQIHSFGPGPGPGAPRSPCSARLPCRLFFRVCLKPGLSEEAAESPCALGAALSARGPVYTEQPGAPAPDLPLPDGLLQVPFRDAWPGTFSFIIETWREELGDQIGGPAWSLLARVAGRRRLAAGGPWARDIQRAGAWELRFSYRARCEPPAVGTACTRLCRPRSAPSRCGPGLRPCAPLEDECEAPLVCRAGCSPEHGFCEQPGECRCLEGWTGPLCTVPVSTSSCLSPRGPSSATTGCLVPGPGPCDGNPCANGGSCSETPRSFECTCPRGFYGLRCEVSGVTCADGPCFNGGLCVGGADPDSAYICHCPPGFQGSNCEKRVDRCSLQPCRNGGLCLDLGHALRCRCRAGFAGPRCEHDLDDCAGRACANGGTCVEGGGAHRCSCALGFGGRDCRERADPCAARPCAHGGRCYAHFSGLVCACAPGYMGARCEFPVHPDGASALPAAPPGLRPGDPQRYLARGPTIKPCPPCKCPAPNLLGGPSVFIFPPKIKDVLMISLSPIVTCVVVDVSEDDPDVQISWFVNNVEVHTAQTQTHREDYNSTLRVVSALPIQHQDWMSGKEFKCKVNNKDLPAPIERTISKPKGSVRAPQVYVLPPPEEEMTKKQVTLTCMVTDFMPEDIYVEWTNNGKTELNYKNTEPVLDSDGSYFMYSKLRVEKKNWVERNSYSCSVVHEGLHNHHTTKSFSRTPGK

T2: human DLL3 expressed on cells (human DLL3/BaF3) (human, UniProt Q9NYJ7 27-618)
T2 construct: Full-length human DLL3 on the membrane of transformed Ba/F3 cells; The ADCC assays also used NCI-H1184 small-cell lung cancer cells that express DLL3; also called Delta-like 3; NM_016941
T2 sequence: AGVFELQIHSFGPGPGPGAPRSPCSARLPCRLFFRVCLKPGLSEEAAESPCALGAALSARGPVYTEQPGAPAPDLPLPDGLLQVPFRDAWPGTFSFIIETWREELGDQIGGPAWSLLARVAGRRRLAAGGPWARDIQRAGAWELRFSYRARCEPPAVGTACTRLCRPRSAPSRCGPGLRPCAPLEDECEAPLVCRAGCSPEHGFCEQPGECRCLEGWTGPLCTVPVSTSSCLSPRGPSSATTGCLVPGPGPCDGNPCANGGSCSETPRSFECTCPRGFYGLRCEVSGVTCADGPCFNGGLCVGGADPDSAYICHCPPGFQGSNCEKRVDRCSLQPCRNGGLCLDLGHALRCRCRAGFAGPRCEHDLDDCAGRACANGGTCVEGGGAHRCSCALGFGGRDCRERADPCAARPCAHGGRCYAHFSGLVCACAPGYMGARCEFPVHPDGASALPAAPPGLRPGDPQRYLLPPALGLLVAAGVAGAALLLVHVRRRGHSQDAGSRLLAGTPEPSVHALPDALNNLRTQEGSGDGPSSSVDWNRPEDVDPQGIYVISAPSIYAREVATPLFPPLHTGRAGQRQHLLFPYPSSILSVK

B1: DL309 mouse monoclonal antibody (antibody, mouse IgG1, kappa)
heavy: QVQLQQSGGDLMKPGASVKISCKAAGYTFSNYYIEWVKQRPGHGLEWIGEILPGSGSTTYNEKFKGKASFTADTSSNTAYMQLSSLTSEDSAVYYCARWGAREPGFPYWGQGTLVTVSAAKTTPPSVYPLAPGSAAQTNSMVTLGCLVKGYFPEPVTVTWNSGSLSSGVHTFPAVLQSDLYTLSSSVTVPSSTWPSETVTCNVAHPASSTKVDKKIVPRDCGCKPCICTVPEVSSVFIFPPKPKDVLTITLTPKVTCVVVDISKDDPEVQFSWFVDDVEVHTAQTQPREEQFNSTFRSVSELPIMHQDWLNGKEFKCRVNSAAFPAPIEKTISKTKGRPKAPQVYTIPPPKEQMAKDKVSLTCMITDFFPEDITVEWQWNGQPAENYKNTQPIMNTNGSYFVYSKLNVQKSNWEAGNTFTCSVLHEGLHNHHTEKSLSHSPGK
light: DIVMTQSQKFMSTSVGDRVSVTCKASQNVGTNVAWYQQKPGQSPKALIYSASYRYSGVPDRFTGSGSGTDFTLTISNVQSEDLAEYFCQQYNNYPLTFGAGTKLELKRADAAPTVSIFPPSSEQLTSGGASVVCFLNNFYPKDINVKWKIDGSERQNGVLNSWTDQDSKDSTYSMSSTLTLTKDEYERHNSYTCEATHKTSTSPIVKSFNRNEC
notes: also called DL309 mouse antibody
B2: DL306 mouse monoclonal antibody (antibody, mouse IgG1, kappa)
heavy: EVQLQQSGPELVKPGASVKMSCRASGYTFTDYYMKWVKQSHGKSLEWIGDINPNNGDTFYNQKFKGKATLTIDKSSSTAYMQLNSLTSDDSAVYYCARDGNYAYFDYWGQGTTLTVSSAKTTPPSVYPLAPGSAAQTNSMVTLGCLVKGYFPEPVTVTWNSGSLSSGVHTFPAVLQSDLYTLSSSVTVPSSTWPSETVTCNVAHPASSTKVDKKIVPRDCGCKPCICTVPEVSSVFIFPPKPKDVLTITLTPKVTCVVVDISKDDPEVQFSWFVDDVEVHTAQTQPREEQFNSTFRSVSELPIMHQDWLNGKEFKCRVNSAAFPAPIEKTISKTKGRPKAPQVYTIPPPKEQMAKDKVSLTCMITDFFPEDITVEWQWNGQPAENYKNTQPIMNTNGSYFVYSKLNVQKSNWEAGNTFTCSVLHEGLHNHHTEKSLSHSPGK
light: DIVLTQSPASLAVSLGQRATISCRASKSVSTSGYSYMHWYQQKPGQPPKLLIFLASNLESGVPARFSGSGSGTDFTLNIHPVEEEDAATYYCQHSRHLPWTFGGGTKLEIKRADAAPTVSIFPPSSEQLTSGGASVVCFLNNFYPKDINVKWKIDGSERQNGVLNSWTDQDSKDSTYSMSSTLTLTKDEYERHNSYTCEATHKTSTSPIVKSFNRNEC
notes: also called DL306 mouse antibody
B3: DL301 mouse monoclonal antibody (antibody, mouse IgG1, kappa)
heavy: QVQLQQSGADLVRPGTSVKVSCKASGYAFTNYLIEWIKQRPGQGLEWIGVMNPGSGGTHYSEKFRGKATLTADKSSSTAYMQLISLTSDDSAVYFCARSDYDYVTYAMDYWGQGTSVTVSSAKTTPPSVYPLAPGSAAQTNSMVTLGCLVKGYFPEPVTVTWNSGSLSSGVHTFPAVLQSDLYTLSSSVTVPSSTWPSETVTCNVAHPASSTKVDKKIVPRDCGCKPCICTVPEVSSVFIFPPKPKDVLTITLTPKVTCVVVDISKDDPEVQFSWFVDDVEVHTAQTQPREEQFNSTFRSVSELPIMHQDWLNGKEFKCRVNSAAFPAPIEKTISKTKGRPKAPQVYTIPPPKEQMAKDKVSLTCMITDFFPEDITVEWQWNGQPAENYKNTQPIMNTNGSYFVYSKLNVQKSNWEAGNTFTCSVLHEGLHNHHTEKSLSHSPGK
light: DIKMTQSPSSMYASLGERVTITCKASQDINSYLIWFQQKPGKSPKTLIYRTNRLVDGVPSRFSGSGSGQDYSLTISSLEYGDMGIYYCLQYDEFPFTFGSGTKLEIKRADAAPTVSIFPPSSEQLTSGGASVVCFLNNFYPKDINVKWKIDGSERQNGVLNSWTDQDSKDSTYSMSSTLTLTKDEYERHNSYTCEATHKTSTSPIVKSFNRNEC
notes: also called DL301 mouse antibody
B4: DL312 mouse monoclonal antibody (antibody, mouse IgG1, kappa)
heavy: EVKLVESGGGLVQPGGSLSLSCAASGFTFTDYYMNWVRQPPGKALEWLALIRNKANGYTTEYNASVKGRFTISRDNSQNILYLQMNALRAEDSATYYCARDSDGYYEYYFDYWGQGTTLTVSSAKTTPPSVYPLAPGSAAQTNSMVTLGCLVKGYFPEPVTVTWNSGSLSSGVHTFPAVLQSDLYTLSSSVTVPSSTWPSETVTCNVAHPASSTKVDKKIVPRDCGCKPCICTVPEVSSVFIFPPKPKDVLTITLTPKVTCVVVDISKDDPEVQFSWFVDDVEVHTAQTQPREEQFNSTFRSVSELPIMHQDWLNGKEFKCRVNSAAFPAPIEKTISKTKGRPKAPQVYTIPPPKEQMAKDKVSLTCMITDFFPEDITVEWQWNGQPAENYKNTQPIMNTNGSYFVYSKLNVQKSNWEAGNTFTCSVLHEGLHNHHTEKSLSHSPGK
light: DIQMTQSPSSLSASLGERVSLTCRASQEISDYLSWLQQKPDGTIKRLIFAASTLDSGVPKRFSGSRSGSDFSLSISSLESEDFADYYCLQYASYPYTFGSGTKLEIKRADAAPTVSIFPPSSEQLTSGGASVVCFLNNFYPKDINVKWKIDGSERQNGVLNSWTDQDSKDSTYSMSSTLTLTKDEYERHNSYTCEATHKTSTSPIVKSFNRNEC
notes: also called D312; DL312 mouse antibody

Biological target: T1, human DLL3-Fc
Assay: ELISA, immobilized human DLL3-Fc
Method: The competition of a chimeric antibody and a mouse antibody for binding to the antigen molecule was analyzed by ELISA (FIG. 8 (b)). Human DLL3-Fc was added at 10 ng/well to a Nunc immunoplate and immobilized thereon. A mixture (final concentration: 50 ng/ml) of the chimeric antibody and the appropriately diluted mouse antibody was added to the DLL3-Fc protein-immobilized plate. The plate was incubated at room temperature for 1 hour and then washed. Alkaline phosphatase-labeled anti-human antibodies were added thereto and incubated. After the incubation, Sigma 104 was added thereto, and the absorbance was measured. The binding of the chimeric antibody to the antigen molecule competed with that of the original mouse monoclonal antibody thereto.

Binding result, binds:
B1
B2
B3
B4

Biological target: T2, human DLL3 expressed on cells (human …)
Assay: flow cytometry on human DLL3/BaF3 cells, antibody 5 µg/ml
Method: The binding of each monoclonal antibody to human DLL3 expressed on a cell membrane and the behavior of a human DLL3-monoclonal antibody complex on the cell membrane were analyzed by flow cytometry. Human DLL3/BaF3 cells were suspended in a FACS buffer (PBS containing 1% fetal bovine serum and 0.05% sodium azide). The cell suspension of 1×10⁶ cells/ml was reacted with the monoclonal antibody (final concentration: 5 μg/ml) at 4° C. for 30 minutes. After centrifugation and supernatant removal, the cells were washed once with a FACS buffer. FITC-labeled anti-mouse IgG (H+L) antibodies (Beckman Coulter, Inc.) were added thereto and incubated at 4° C. for 30 minutes. Unreacted FITC antibodies were removed by centrifugation. Then, the cells were resuspended and analyzed using a flow cytometer FACSCalibur (Becton, Dickinson and Company). For the purpose of analyzing the movement or disappearance of the DLL3-antibody complex from the cell membrane, human DLL3/BaF3 cells were suspended in an RPMI1640 culture medium containing 10% fetal bovine serum (FBS) and mouse IL3. The cell suspension of 1×10⁶ cells/ml was mixed with the monoclonal antibody (final concentration: 5 μg/ml) and reacted at 37° C. for 1 hour or 4 hours in a CO2 incubator. After the reaction, the amount of the antibody bound onto the cell membrane was analyzed by flow cytometry in the same way as above. The geometric mean of fluorescence intensity values (X Geo Mean) in a cell histogram plot was determined using the analytical software CELLQuest Pro included in FACSCalibur. All the isolated anti-DLL3 monoclonal antibodies bound to DLL3 on the cells (FIG. 3(a)). The reaction of the antibody with the cells at 4° C. inhibits membrane fluidity such as the cellular uptake of the DLL3-antibody complex from the cell membrane. The reaction of the antibody with the cells at 37° C. may cause the cellular uptake of the DLL3-antibody complex and shading (release from the cell membrane) resulting from protease digestion or the like. The amount of each monoclonal antibody bound onto the cell membrane as a result of incubation at 37° C. for 1 hour or 4 hours is shown in FIG. 3(b) as a relative value compared with that at 4° C. As a result of incubation at 37° C., the amount of the antibody DL303, DL304, DL305, DL308, DL309, or MAB4315 on the surface of the cell membrane was decreased.

Binding result, binds:
B1
B2
B3
B4
